Source: the DeepSol protein solubility set

Assay: soluble on expression in E. coli; label from the status in PepcDB or PDB records

Sequence | soluble on expression in E. coli
MRTRSQVWAQKAYEKVREAAKGEGRGEYRDMALKLPVLVRQAGLSQALAFVDSRGKEAHKALGNDLAQVLGYRDLRELAEAAREAELLQYLRLTREVLAAAEWFKRFAQALIEE | soluble
MGSDKIHHHHHHMASVMSNNNNNNNNNNASYMFTNPLSNTGGGLINEIKDAINEMEQLKVLELKQICKSLDLSITGKKAVLQDRIKQFLRKSCDIGHIDPWRPKAIKILIAKVRINSSLPKYSTLWETLKTGAFKHPVASGQLPVTALQSTALPPYSQQQALAYSFTSPFYKPIVQIPDANKKLKQSAGRGCTKMKFKVSKSNHDLLKSNKSYKLYLFSGFSIPFIYETVGHEAIDFPYPCELVFNGTKLEDNVKGLKKQNGTGNPANLTPYLKVPTEMNHLDLHYLNIDKEYSISCFIVEVFSPEALLGKILKRPKIIKQATTAYIKRTLNEQDDDDIITTSTVLSLQCPISCTRMKYPAKTDQCKHIQCFDALWFLHSQSQVPTWQCPICQHPIKFDQLKISEFVDNIIQNCNEDVEQVEISVDGSWKPIHNSSAVITDTVNQNHSVKNENQGTVKQEQDYDSRNAFDTNLRNGSNHNEPEIISLDSSDDEAFIPASKSFPTHVNPRNDQLRADIFPSESEGSSDYNPNHTSTPKGSPTMDQDNYQDAFQMRSFLNQGATTNINDTPTNNSSINSFVTATNGDSRIFYNRGPSTPLLPAVLQNLTNQTEAQRNPYGPNYNTTAQDRNLLGIEGDLPPIPPVDPNSEAETELPTRTTSAAHLPPYIHVSTSGHGDDGKIRKRRHSNVSIYIPKNPYATLMKRRPQANHAIMNKTLAQTNDFNTSAQDNSEVVDLTSD | not soluble
MGSDKIHHHHHHMIYLDQAASSFPKPKEVAEAMVAAVNEYGANPGRGGHRLATQARVTIDETRELLKTLFNAPSKKHVWFYQNATGALNQALFGFPFKEGDHVVSTALEHNSVRRPLEQLRERNGLVITYAQPDEEGIISPEKIAQACTDQTKAIVLSHGSNVTGAYLELEKIGEMAEAHGIVFIVDASQTAGVIDIDMKRDRISMLACAGHKGLLGPQGTGVLIVADDYGLTPLSYGGTGSYSELIDQPSQWPDRYESGTLNTPGIAGLKAGIEYVLDNGVAQIFAHEWALTERLLKGLGAQKVDVYGPPLPRKRLGVVSFRLSGFDSHEVALILDEHYQIAVRAGLHCAPMTHETLQTTDTGLIRVSVGPFNTEREVDQLLQAVMDIQQAFTS | not soluble
EEQIMRRNEDSWLIDGATPLEDVMRALNIHTFPRDENYETIGGFMMYMLRKIPKKTDFVLYDKYKFEIIDTENFRIDQLMVSFRK | soluble
QESSGNKIHFINVQEGGSDAIILESNGHFAMVDTGEDYDFPDGSDSRYPWREGIETSYKHVLTDRVFRRLKELSVQKLDFILVTHTHSDHIGNVDELLSTYPVDRVYLKKYSDSRITNSERLWDNLYGYDKVLQTATETGVSVIQNITQGDAHFQFGDMDIQLYNYENETDSSGELKKIWDDNSNSLISVVKVNGKKIYLGGDLDNVHGAEDKYGPLIGKVDLMKFNHHHDTNKSNTKDFIKNLSPSLIVQTSDSLPWKNGVDSEYVNWLKERGIERINAASKDYDATVFDIRKDGFVNISTSYKPIPSFQAGWHKSAYGNWWYQAPDSTGEYAVGWNEIEGEWYYFNQTGILLQNQWKKWNNHWFYLTDSGASAKNWKKIDGIWYYFNKENQMEIGWVQDKEQWYYLDVDGSMKTGWLQYMGQWYYFAPSGEMKMGWVKDKETWYYMDSTGVMKTGEIEVAGQHYYLEDSGAMKQGWHKKANDWYFYKTDGSRAVGWIKDKDKWYFLKENGQLLVNGKTPEGYTVDSSGAWLVDVSIEKSATIKTT | soluble
MSSNECFKCGRSGHWARECPTGGGRGRGMRSRGRGGFTSDRGFQFVSSSLPDICYRCGESGHLAKDCDLQEDACYNCGRGGHIAKDCKEPKREREQCCYNCGKPGHLARDCDHADEQKCYSCGEFGHIQKDCTKVKCYRCGETGHVAINCSKTSEVNCYRCGESGHLARECTIEATA | soluble
MAHHHHHHMRLRSPCGVKGIAADALVDLVQSCYPSATVLFTSVANNVAAADNSELRISSSLDAWQAKLHTRRAWRQGLSVDTPGFQRILARRHIVPARSAEAAASSWWALLYAADATNRPRVALPRQPSQSLPPSHIAHPILCCPDAIVYIGGVEVRDVTQVVAPTLVDAVTRVEAPHSTVGAASATHRAERQAPSYCRRRVDWPTVWADKRCAMRGADLLELSLAVPSDLGHRHADVRERVLVSIANPDVTLADLQRQPHAGRRGPLRTSFGFSLPCVQAALPAAVIRAVRVLRRWQRDVAHCIPSTSAFWVSSIGHLLETSVGDAASPLTQWAEACTRQEQELGMSETQMRHLFAIVQPDSDQTSTRVPLPEDATKLLTFLLTSTVLQLACTSPLEAWNGTNYFLPAERFDGTTDAEVLLRTMRSVAGTHLTFPIFSSLYGSPCGAEQGPLSQSSP | not soluble
MKNVGFIGWRGMVGSVLMDRMSQENDFENLNPVFFTTSQAGQKAPVFGGKDAGDLKSAFDIEELKKLDIIVTCQGGDYTNEVYPKLKATGWDGYWVDAASALRMKDDAIIVLDPVNQHVISEGLKKGIKTFVGGNCTVSLMLMAIGGLFEKDLVEWISVATYQAASGAGAKNMRELLSQMGLLEQAVSSELKDPASSILDIERKVTAKMRADNFPTDNFGAALGGSLIPWIDKLLPETGQTKEEWKGYAETNKILGLSDNPIPVDGLCVRIGALRCHSQAFTIKLKKDLPLEEIEQIIASHNEWVKVIPNDKEITLRELTPAKVTGTLSVPVGRLRKLAMGPEYLAAFTVGDQLLWGAAEPVRRILKQLVA | soluble
MRLHARSPRVESGRYGWLLDSVVDERRRHRMSFLRLGRNGMSEFERPTDHSLGRCGQVLCVTRGVSSRAPRRSAETGVSVATPATVAAHISVWQYEAMSAYAALAEPHRRQILDLLREGERPAGELVERIALSQPGVSKHLKVLREAGLVVVRADGKQRLYALRPEPLAEVDRWLEPYRAYWSRRLDALERHLEENP | not soluble
MEEYKLSHLKELEAESIHIIREVAAEFENPVMLYSIGKDSSVMVRLAEKAFYPGKVPFPLMHIDSKWKFKEMIQFRDEYAKKHGWNLIVESNMEAFHAGVGPFTHGSKVHTDLMKTQALLHALDKYKFDAAFGGARRDEEKSRAKERIFSFRDKFHQWDPKNQRPELWDIYNARVHKGESIRVFPISNWTELDIWQYIRLENIPIVPLYYAKERPVINLDGNIIMADDDRLPEKYRDQIEMKMVRFRTLGCWPLTGAVESGAATIEEIVEEMMTTTKSERTTRVIDFDQEGSMEQKKREGYF | not soluble
FEAQKAKANKAVDGGGGSLVPRGSGGGGSERHFVYQFMGECYFTNGTQRIRYVTRYIYNREEYVRYDSDVGEHRAVTELGRPDAEYWNSQPEILERTRAELDTVCRHNYEGPETHTSLRRLEQPNVVISLSRTEALNHHNTLVCSVTDFYPAKIKVRWFRNGQEETVGVSSTQLIRNGDWTFQVLVMLEMTPRRGEVYTCHVEHPSLKSPITVEWKA | soluble
MGSDKIHHHHHHMKRIGIIAAWQPELNYLHEEYPSRKVRKIAAWEFHYHSINNLEIISVISGVGKTNCSSCTQLLISEFRPDEIYMTGICGSLSDSIKGGEIVIARQMLQHDVTNAGKGDDVWDLYTGRTSIIDGDNSIFSDFLNFAINTSEHKINNGMFISGDQRIREDVLRSSLSSTHNAIAVDQEIASFSYVSYVNKIPFLCVKSVSDQADNKTIEDQKRFKLLACENSCKLLIEFLLR | not soluble
SLSANLVGITGIARRLVQDGSIEEATARTAQNQAMAAKVPLPQWLIDKKLVSAAKLAAANALEFGMPLLDVSAFDHNHNAMNLVDEELLQKHRVLPLFKRGNRLFVGISNPTQTQALDDIKFHTNLVVEPILVDEDQIRRTLEQWQSRKG | soluble
GPGSMFGANAPSTGIGAPAAGFGKPPATFGTSALSGANTTATAGRGFGAATGASATPGFGIAFAAPSTSTAAAGGASGFGSSAASGTTGFGGAAGFGSSAASGTTGFGGAAGFGSSAASGTTGFGAGGGFGAKPGSGFGVSATSGFGAPATGTTGFGAGATAPAAIGGWGAQQPNPAMQPQAPQQPQPTVTLQDFARQSALASYLVKLDESYNALHPNCRFRAFVYNSCGAGQVMDAIQKERYTAHLNGGGCSEEAYMQALHQNPDPGRLYPSPIHFSQELLRRTEKQREAVKVLQKKVTELLQDIDTVAAMDAANVRRQREVEQEEVMLQHRWYSLLCKMELLRRHGSSCGEEGLLNSRVEQLRKLLRAPGRFSQLLSELRPFLTEEASRVAMITQQSANKTEARQQQQQCRFVGSAPAAWRNAGSQPLLRTEVDPYIMKDWVQFAKQMQDGIETLNELLKTDLKEMQAIRSRVEAS | not soluble
